In article PMC10318527, “Utilization of dietary mixed-linkage β-glucans by the Firmicute Blautia producta” (The Journal of Biological Chemistry, 2023):

What was measured:
[1] = substrate: OC[C@H]1O[C@@H](O[C@H]2[C@H](O)[C@@H](O)[C@H](O[C@H]3[C@H](O)[C@@H](CO)OC(O)[C@@H]3O)O[C@@H]2CO)[C@H](O)[C@@H](O)[C@@H]1O; assay: purified protein, by the assay type; assay type: biochemical, Blautia producta ATCC 27340; details: other: PAHBAH assay, 100 mM HEPES pH 6.5, 37 °C
Method: (§2) 150 μl of a freshly prepared 8:2 mixture of reagent A (50 mM sodium sulfite, 0.3 M 4-hydroxybenzhydrazide and 0.6 M HCl) and reagent B (50 mM trisodium citrate, 10 mM CaCl2, 0.5 M NaOH) were added to 50 μl sample. The reaction cocktail was boiled for 10 min at 100 °C. After the reaction was cooled down, the absorbance was recorded at 410 nm using the SpectraMax i3x multi-mode microplate reader. A calibration curve with different concentrations of glucose (0, 2, 4, 8, 16, 40, 80, 100, 200, 300, and 500 μM) was employed for each experiment to calculate the released amount of glucose (reducing end equivalents). The same samples were also used for control measurement, and the control value was subtracted from test reading prior to calculate kinetics parameters. In all cases, the Km, Vmax, and kcat were analyzed on GraphPad Prism. Three independent replicates were used for each test. TLC analyses were used for understanding the enzymatic degradation profiles of various oligosaccharides.

[2] = substrate: OC[C@H]1O[C@@H](O[C@H]2[C@H](O)[C@@H](O)[C@H](O[C@H]3[C@H](O)[C@@H](O)[C@H](O[C@H]4[C@H](O)[C@@H](CO)OC(O)[C@@H]4O)O[C@@H]3CO)O[C@@H]2CO)[C@H](O)[C@@H](O)[C@@H]1O; assay: purified protein, by the assay type; assay type: biochemical, Blautia producta ATCC 27340; details: other: PAHBAH assay, 100 mM HEPES pH 6.5, 37 °C
Method: as §2

[3] = substrate: OC[C@H]1O[C@@H](O[C@@H]2[C@@H](O)[C@H](O[C@H]3[C@H](O)[C@@H](CO)OC(O)[C@@H]3O)O[C@H](CO)[C@H]2O)[C@H](O)[C@@H](O)[C@@H]1O; assay: purified protein, by the assay type; assay type: biochemical, Blautia producta ATCC 27340; details: other: PAHBAH assay, 100 mM HEPES pH 6.5, 37 °C
Method: as §2

[4] = substrate: OC[C@H]1O[C@@H](O[C@H]2[C@H](O)[C@@H](O)[C@H](O[C@H]3[C@H](O)[C@@H](CO)OC(O)[C@@H]3O)O[C@@H]2CO)[C@H](O)[C@@H](O)[C@@H]1O; assay: Phosphorolysis kinetics of BpGH94MLG (PAHBAH assay); assay type: biochemical, Blautia producta ATCC 27340; details: other: phosphorolytic reaction, pH 6.5, 37.0 °C
Method: (§1) TLC was used for analyzing enzymatic actions. […] Kinetics parameters for BpGH94MLG were determined with G4G3G, G4G4G3G and cellotriose, following a p-hydroxybenzoic acid hydrazide (PAHBAH) reducing sugar assay ([69]).

[5] = substrate: OC[C@H]1O[C@@H](O[C@H]2[C@H](O)[C@@H](O)[C@H](O[C@H]3[C@H](O)[C@@H](O)[C@H](O[C@H]4[C@H](O)[C@@H](CO)OC(O)[C@@H]4O)O[C@@H]3CO)O[C@@H]2CO)[C@H](O)[C@@H](O)[C@@H]1O; assay: as above; assay type: biochemical, Blautia producta ATCC 27340; details: other: phosphorolytic reaction, pH 6.5, 37.0 °C
Method: as §1

[6] = substrate: OC[C@H]1O[C@@H](O[C@H]2[C@H](O)[C@@H](O)[C@H](O[C@H]3[C@H](O)[C@@H](O)C(O)O[C@@H]3CO)O[C@@H]2CO)[C@H](O)[C@@H](O)[C@@H]1O; assay: as above; assay type: biochemical, Blautia producta ATCC 27340; details: other: phosphorolytic reaction, pH 6.5, 37.0 °C
Method: as §1

[7] = substrate: OC[C@H]1O[C@@H](O[C@H]2[C@H](O)[C@@H](O)[C@H](O[C@H]3[C@H](O)[C@@H](O)[C@H](O[C@H]4[C@H](O)[C@@H](O)C(O)O[C@@H]4CO)O[C@@H]3CO)O[C@@H]2CO)[C@H](O)[C@@H](O)[C@@H]1O; assay: purified protein, by the assay type; details: other: PAHBAH assay, 100 mM HEPES pH 6.5, 37 °C
Method: as §2

[8] = substrate: O=C[C@H](O)[C@@H](O)[C@H](O[C@@H]1O[C@H](CO)[C@@H](O)[C@H](O)[C@H]1O)[C@H](O)CO; assay: purified protein, by the assay type; details: other: PAHBAH assay, 100 mM HEPES pH 6.5, 37 °C
Method: as §2

[9] = substrate: OC[C@H]1O[C@@H](O[C@H]2[C@H](O)[C@@H](CO)OC(O)[C@@H]2O)[C@H](O)[C@@H](O)[C@@H]1O; assay: purified protein, by the assay type; details: other: PAHBAH assay, 100 mM HEPES pH 6.5, 37 °C
Method: as §2

[10] = substrate: OC[C@H]1O[C@@H](O[C@H]2[C@H](O)[C@@H](O)[C@H](O[C@H]3[C@H](O)[C@@H](CO)OC(O)[C@@H]3O)O[C@@H]2CO)[C@H](O)[C@@H](O)[C@@H]1O; assay: purified protein, by the assay type; details: other: PAHBAH assay, 100 mM HEPES pH 6.5, 37 °C
Method: as §2

[11] = substrate: OC[C@H]1O[C@@H](O[C@H]2[C@H](O)[C@@H](O)[C@H](O[C@H]3[C@H](O)[C@@H](O)[C@H](O[C@H]4[C@H](O)[C@@H](CO)OC(O)[C@@H]4O)O[C@@H]3CO)O[C@@H]2CO)[C@H](O)[C@@H](O)[C@@H]1O; assay: purified protein, by the assay type; details: other: PAHBAH assay, 100 mM HEPES pH 6.5, 37 °C
Method: as §2

[12] = substrate: OC[C@H]1O[C@@H](O[C@H]2[C@H](O)[C@@H](O)[C@H](O[C@H]3[C@H](O)[C@@H](O)C(O)O[C@@H]3CO)O[C@@H]2CO)[C@H](O)[C@@H](O)[C@@H]1O; assay: purified protein, by the assay type; details: other: PAHBAH assay, 100 mM HEPES pH 6.5, 37 °C
Method: as §2

[13] = substrate: OC[C@H]1O[C@@H](O[C@@H]2[C@@H](O)[C@H](O[C@H]3[C@H](O)[C@@H](CO)OC(O)[C@@H]3O)O[C@H](CO)[C@H]2O)[C@H](O)[C@@H](O)[C@@H]1O; assay: purified protein, by the assay type; details: other: PAHBAH assay, 100 mM HEPES pH 6.5, 37 °C
Method: as §2

B1: BpGH3-AR8MLG (Blautia producta ATCC 27340 = DSM 2950) (protein)
chain: MKLKNKTFTGTTSNEVTARETENRKLARLAAAEGFVLLKNQDHILPLKKGIKLGLYGAGAVKTIKGGTGSGDVNERECVNICQGLENAGYEITSSAWLEAYASLYEETRLKWRDEILGKLEAYDNNFFEAYSTTPFFMPCGNPVDVDKASDDGADTAIYVLSRIAGENADRHDTEGDYYISAEEKALIAQLSKAYDSLVLVINTGGLVDLAFVQEFDNIKAVLQFVQAGQEGGSAFADVVSGKVTPSGKLADTWAFDYKDYPNSETFSFKNGDVNTEKYQEGIYVGYRYFDTFDVPVLYPFGFGLSYTDFMICTEEIKTVNTESGKPEIAVTVKVTNTGDTYCGKEVVQIYVSCPQGKLAKEYRRLAGFAKTEELKPGESCRITITFPVYQLASFHEENAAWVLEEGTYGVWTGNSIQGAKLAGSLCVDKDAILVQCEHICPVKEELTELTPDSSRMKEKEAAWLEKAAGLPSVHIDAEKITKETVVYTELPERFTGRAGEIVESLSVEQLIQMSAGDPGKGQDAVLGSAGITVPGAAAETSSAASGEPWNLPSIALADGPAGLRLNQKYQVVDGEIVRENFMKSIEKGFFAEPSPEVGTAYYQFCTAIPVGTLLAQTWNAELVKEVGEMIGKEMELFQVTLWLAPGMNIHRNPLCGRNFEYYSEDPLLSGIMASAMTLGVQKVPGCGTTIKHFACNNQEDNRMGSDSVLSERALREIYLKGFEIAVKNSQPMSIMTSYNMINGVHAANCYDICTRAARDEWEFAGAVMTDWTTTFASPRGECTAAGCMRAGNDMVMPGIPKDHENIRRELEEGTLDIRELKRCICNTVNLILQSNRYENAVSYLEQFEGLDAYLSVERSN
Q: With B1 as the protein, how does the kcat [1] read?
A: The kcat was 17 ± 0.3 s⁻¹.

Q: And the kcat/Km [1]?
A: Its kcat/Km is 71 s⁻¹ mM⁻¹.

Q: And the Km [2]?
A: Its Km is 0.3 ± 0.04 mM.

Q: What about the kcat [2] of the same protein?
A: Its kcat is 20 ± 0.3 s⁻¹.

Q: And the kcat/Km [2]?
A: Its kcat/Km is 67 s⁻¹ mM⁻¹.

Q: And the Km [3]?
A: Its Km is 0.23 ± 0.05 mM.

Q: And the kcat [3]?
A: Its kcat is 12 ± 0.2 s⁻¹.

Q: What about the kcat/Km [3] of the same protein?
A: The kcat/Km was 52 s⁻¹ mM⁻¹.

B2: BpGH94MLG (Blautia producta) (protein)
chain: MKYGYFDEEKKEYVITRPDTPAPWVNYLGSPEYGAIISNNAGGYSFEKSGANGRILRYVFNNFDQPGRYIYIRDQENKDFWSASWQPVGKPQDVYQCECRHGTAYTNMRAEYSEISSEVLYYVPLGAAYEVWRLRLTNNSDRPRNLCVTGYAEFTNNSNYEQDQVNLQYSQFITQTAFRGNRICQMIHANLDQLEPGKDVDDKQVTERFFGLAGNPVTSWCGDKDGFLGRYHGYDAPKGVIEGKLSCLPNYNGNGCGALSSDFVLKPGEAKEVVFVLGMKKDAEVEEILKRYEIPETVCREEFHKLVKYWHGYLSHFQVKTPSREFNTMVNTWNAYNCFMTFIWSRAASFIYCGLRNGYGYRDTVQDIQGIIHLAPDMALEKIRFMLSAQADNGGGLPLVKFTHNPGHEDTPDDASYVKETGHPAYRADDALWLFPTVYKYIAETGNMDFIDEVIPFANRGKATVYEHLKRAVKFSMDHLGRHGMPAGLYADWNDCLRLGKDGESTFVAMQFYYAMTILKKFAKYKKDVEYMEFLCERQKKLEELIQKFCWDEGRFIRGFTENGEIIGKSTDPEANMWLNPQSWAVISGVANEEQADRVLDVVEKRLNTEYGLVLMDPPYHAHAFDGALAVIYNPGTKENAGIFSQSQGWIILAEALRGHGERAFTYFMENAPAAQNDRADIRKLEPYCYGQFTEGKDSPNFGRSHVHWLTGTASTIMVGCVEGILGIRPDFYGIRLAPAIPKEWEEYEVEKDFRGCHLHIKVKNPGHVESGCEKLVVNGNVVTGSYIPADLLTEQTDIELFIS
Q: For B2, which Km [4] is on record?
A: Its Km is 0.052 ± 0.005 mM.

Q: What about the kcat [4] of the same protein?
A: The kcat was 1.86 ± 0.022 s⁻¹.

Q: And the kcat/Km [4]?
A: Its kcat/Km is 35700 M⁻¹ s⁻¹.

Q: And the Km [5]?
A: Its Km is 0.021 ± 0.002 mM.

Q: And the kcat [5]?
A: Its kcat is 1.21 ± 0.014 s⁻¹.

Q: And the kcat/Km [5]?
A: Its kcat/Km is 57600 M⁻¹ s⁻¹.

Q: And the Km [6]?
A: Its Km is 0.028 ± 0.004 mM.

Q: What about the kcat [6] of the same protein?
A: The kcat was 0.67 ± 0.021 s⁻¹.

Q: What about the kcat/Km [6] of the same protein?
A: Its kcat/Km is 23900 M⁻¹ s⁻¹.

B3: BpGH3-X62MLG (Blautia producta ATCC 27340 = DSM 2950) (protein)
chain: MENKYVIDWDKYAALARRAAAEGAVLLKNDNQALPLKKETISVFGRIQYHYYKSGTGSGGLVNAKYVIGIMDALQEEKDLTLDEELAAVYRSWIMEHPFDQGSGWAQEPWSQEEMPLDEKMVEEAAARSDTAVIVIGRTAGEDRDASAEKGSYLLTDLEEDMLEKVCRLFKKSIVVLNVGNIIDMKWVEKYNPSAVLYTWQGGQEGGHSAADVLTGRVNPCGKLADTIARDISDYPSTENFGGGDFDIYAEDIYVGYRYFETFARDKVLYPFGFGLSYTSFRTECGPIKRLDGETSVCVKVTNAGSCAGKEVVQMYVEPPQGKLGKPSRNLAAFAKTKCLQPGESQELVLKVTDYYISSYDDSGAAGFKSCYVLENGSYGIYVGTDVRGAEAAGSFYIPETIATSVCTEAAGPVRQFKRMRAKEGGALAWEEAPLRTHKMQERIHKEILPDITYTGNKGFTLGEVFDRDISLNEFLAQLSEEDLCCIVRGEGMCSPKVTPGTAAAFGGVTESLQKLGIPCGCCADGPSGIRMDCGTPAFSMPNGTCLACTFDTELSEELYEMEGAELRKNRIDTLLGPGINIHRNPLNGRNFEYFSEDPYLTGIMASAQLKGMARFGVTGTIKHFAANNQEYHRRLLDSVMSERALREIYLRGFEIAVKEGKAYSIMTTYGAINGLWTASNYDLLTTILRKEWGFEGMVMTDWWADLNDEGGQPSTDNLAAMVRSQNDVYMVTQDSLNNKDNLMESLKNGTLKRGALLRCAGNICRMLMRSPVMERTLGRMSEEEKKAGEVMAGEDKVDFDITYHKVQGSLVLDGTKIDTSKGNSVVYGILLDTFGSYKVRLKVKADSGELAQIPVSVFANGHLEGTVTINGTKGEWIEIEKTIGPLFGPHNYVRLYFAQSGMQIQTVTIELQEKMDRGF
Q: How did the Km [7] turn out when B3 was run?
A: The Km was 0.45 ± 0.06 mM.

Q: And the kcat [7]?
A: Its kcat is 19 ± 0.3 s⁻¹.

Q: And the kcat/Km [7]?
A: Its kcat/Km is 43 s⁻¹ mM⁻¹.

Q: And the Km [8]?
A: Its Km is 0.2 ± 0.03 mM.

Q: What about the kcat [8] of the same protein?
A: Its kcat is 8 ± 0.01 s⁻¹.

Q: And the kcat/Km [8]?
A: The kcat/Km was 38 s⁻¹ mM⁻¹.

Q: And the kcat [9]?
A: The kcat was 12 ± 0.2 s⁻¹.

Q: And the kcat/Km [9]?
A: The kcat/Km was 48 s⁻¹ mM⁻¹.

Q: And the Km [10]?
A: Its Km is 0.23 ± 0.04 mM.

Q: What about the kcat [10] of the same protein?
A: The kcat was 17 ± 0.3 s⁻¹.

Q: What about the kcat/Km [10] of the same protein?
A: Its kcat/Km is 73 s⁻¹ mM⁻¹.

Q: And the Km [11]?
A: Its Km is 0.25 ± 0.05 mM.

Q: And the Km [12]?
A: The Km was 0.26 ± 0.03 mM.

Q: And the kcat [12]?
A: Its kcat is 15 ± 0.2 s⁻¹.

Q: What about the kcat/Km [12] of the same protein?
A: The kcat/Km was 59 s⁻¹ mM⁻¹.

Q: And the kcat [13]?
A: The kcat was 12 ± 0.2 s⁻¹.

Q: And the kcat/Km [13]?
A: Its kcat/Km is 51 s⁻¹ mM⁻¹.
